In the test the target is type II receptors on the cell surface of INA6 cells (human (endogenous in INA6)).

Experimental findings from publication PMC5425150 are described below.

Molecule BMP2-L51PL100KN102D (ligand) showed a concentration for 50% rescue (IC50) from inhibition of INA6 cell proliferation induced by 10 nM Activin A, WST-1; competes with Activin A for the type II receptors of 0.0625 µM.

B1: Recombinant human BMP2 (wildtype) (ligand)
chain: QAKHKQRKRLKSSCKRHPLYVDFSDVGWNDWIVAPPGYHAFYCHGECPFPLADHLNSTNHAIVQTLVNSVNSKIPKACCVPTELSAISMLYLDENEKVVLKNYQDMVVEGCGCR
In turn, B1 displayed a concentration for 50% rescue (IC50) from inhibition of INA6 cell proliferation induced by 10 nM Activin A, WST-1; competes with Activin A for the type II receptors of 0.25 µM.
